T1: human ASGR1 (human, UniProt P07306 62-291, limits assumed)
T1 construct: also called asialoglycoprotein receptor 1; hASGR1
T1 sequence (looked up): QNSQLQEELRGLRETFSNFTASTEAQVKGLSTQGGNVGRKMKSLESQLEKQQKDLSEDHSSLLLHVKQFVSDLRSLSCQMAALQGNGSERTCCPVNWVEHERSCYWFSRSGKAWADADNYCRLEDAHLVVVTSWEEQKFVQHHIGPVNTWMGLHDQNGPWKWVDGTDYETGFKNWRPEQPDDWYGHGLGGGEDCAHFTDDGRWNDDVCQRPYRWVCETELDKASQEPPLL

T2: HuASGR1-CBD_P07306_154-291 (human)
T2 construct: also called human ASGR1-CBD
T2 chain: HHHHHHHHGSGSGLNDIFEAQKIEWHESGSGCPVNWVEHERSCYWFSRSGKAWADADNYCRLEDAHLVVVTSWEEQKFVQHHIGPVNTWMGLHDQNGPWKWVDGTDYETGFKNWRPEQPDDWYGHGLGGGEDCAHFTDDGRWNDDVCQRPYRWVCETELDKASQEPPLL

B1: 8M24 humanized L1H1 (antibody, V domains shown)
VH: EVQLVQSGAEVKKPGSSVKVSCKASGYTFTNYGINWVRQAPGQGLEWMGEIFPRSDNTFYAQKFQGRVTITADKSTSTAYMELSSLRSEDTAVYYCARKGRDYGTSHYFDYWGQGTTVTVSS
VL: DIQMTQSPSSLSASVGDRVTITCRISENIYSNLAWYQQKPGKAPKLLIYAAINLADGVPSRFSGSGSGTDFTLTISSLQPEDFATYYCQHFWGTPFTFGQGTKLEIK
notes: also called 8M24 humanized 1
B2: 8M24 Fab (L1H1 version) (Fab, V domains shown)
VH: EVQLVQSGAEVKKPGSSVKVSCKASGYTFTNYGINWVRQAPGQGLEWMGEIFPRSDNTFYAQKFQGRVTITADKSTSTAYMELSSLRSEDTAVYYCARKGRDYGTSHYFDYWGQGTTVTVSS
VL: DIQMTQSPSSLSASVGDRVTITCRISENIYSNLAWYQQKPGKAPKLLIYAAINLADGVPSRFSGSGSGTDFTLTISSLQPEDFATYYCQHFWGTPFTFGQGTKLEIKR
notes: Heavy chain entry includes a C-terminal hexa-histidine tag; also called 8M24L1 Light-chain + 8M24H1 Heavy-chain; SZP19057+19056
B3: 8M24 humanized L2H2 (antibody, V domains shown)
VH: EVQLVQSGAEVKKPGSSVKVSCKASGYTFTNYGINWVRQAPGQGLEWIGEIFPRSDNTFYAQKFQGRATLTADKSTSTAYMELSSLRSEDTAVYYCARKGRDYGTSHYFDYWGQGTTLTVSS
VL: DIQMTQSPSSLSASVGDRVTITCRISENIYSNLAWYQQKPGKAPKLLVYAAINLADGVPSRFSGSGSGTDFTLTISSLQPEDFGTYYCQHFWGTPFTFGQGTKLEIK
notes: also called 8M24 humanized 2

Tests used:
human ASGR1 = target: T1, human ASGR1; test: kinetic binding to human ASGR1, IgG1 format; method and unit inferred
[1] = target: T2, HuASGR1-CBD_P07306_154-291; test: size-exclusion chromatography of the mixed proteins (1.1:1 molar ratio)
Protocol: Purified […] and 8M24 Fab were mixed at 1.1:1 molar ratio (little excess of the HuASGR1-CBD), and incubated with carboxy-peptidase A and B at a w/w ratio of 100:1 for over-night at 4° C. Complex formation was confirmed by observation of a single-major peak on SuperdexS200 Increase (10/300 GL) column pre-equilibrated in HBS. Fractions containing complexes were further checked by SDS-PAGE and concentrated to ˜20 mg/mL for crystallization screens. […] 96-well plate crystal screening experiments were periodically monitored manually via a DiscoveryV20 stereomicroscope (Zeiss USA), and crystals were frozen for data collection by plunging into liquid nitrogen in the presence of various cryo-protectants (typically 15 to 30% v/v of glycerol or ethyleneglycol). […] Structure of HuASGR1-CBD:8M24 complex was determined by molecular replacement method using Phaser [Phaser crystallographic software. McCoy A J, Grosse-Kunstleve R W, Adams P D, Winn M D, Storoni L C, and Read R J. (2007) J Appl Crystallogr 40, 658-674] with poly-alanine model of published structure of ASGR1-CBD [PDB code: SJPV; Efficient Liver Targeting by Polyvalent Display of a Compact Ligand for the Asialoglycoprotein Receptor. […]

| Binder | Kd (human ASGR1) [nM] | binding result [1] |
| --- | --- | --- |
| B1 | 0.00573 | – |
| B2 | – | binds |
| B3 | 0.11 | – |
